Source: patent US20250320281A1

B1: PGT-130 (antibody, V domains shown)
VH: QVQLQESGPGLVKPAETLSLTCSVSGESINTGHYYWGWVRQVPGKGLEWIGHIHYTTAVLHNPSLKSRLTIKIYTLRNQITLRLSNVTAADTAVYHCVRSGGDILYYYEWQKPHWFSPWGPGIHVTVSS
VL: QSALTQPPSASGSLGQSVTISCNGTSSDIGGWNFVSWYQQFPGRAPRLIIFEVNKRPSGVPGRFSGSKSGNSASLTVSGLQSDDEGQYFCSSLFGRWDVVFGGGTKLTVL
B2: PGT-126 (antibody, V domains shown)
VH: QPQLQESGPGLVEASETLSLTCTVSGDSTAACDYFWGWVRQPPGKGLEWIGGLSHCAGYYNTGWTYHNPSLKSRLTISLDTPKNQVFLKLNSVTAADTAIYYCARFDGEVLVYHDWPKPAWVDLWGRGTLVTVSS
VL: QSALTQPPSASGSPGQSISISCTGTSNRFVSWYQQHPGKAPKLVIYGVNKRPSGVPDRFSGSKSGNTASLTVSGLQTDDEAVYYCSSLVGNWDVIFGGGTKLTVL

What was measured:
[1] = biological target: HIV-1 JR-CSF Env F468A (HIV-1 isolate JR-CSF) (UniProt P20871); experiment: cell-based or functional assay
[2] = biological target: HIV-1 JR-CSF Env E466A (HIV-1 isolate JR-CSF) (UniProt P20871); experiment: cell-based or functional assay

Row | Binder | Fold IC50 increase relative to wild-type [1] | Fold IC50 increase relative to wild-type [2]
1 | B1 | 0.4 fold | 
2 | B2 |  | 1.4 fold
